To fix the notation:
B1: Myocyte-specific enhancer factor 2A (Homo sapiens), Q02078-1 (parent)
chain: MGRKKIQITRIMDERNRQVTFTKRKFGLMKKAYELSVLCDCEIALIIFNSSNKLFQYASTDMDKVLLKYTEYNEPHESRTNSDIVEALNKKEHRGCDSPDPDTSYVLTPHTEEKYKKINEEFDNMMRNHKIAPGLPPQNFSMSVTVPVTSPNALSYTNPGSSLVSPSLAASSTLTDSSMLSPPQTTLHRNVSPGAPQRPPSTGNAGGMLSTTDLTVPNGAGSSPVGNGFVNSRASPNLIGATGANSLGKVMPTKSPPPPGGGNLGMNSRKPDLRVVIPPSSKGMMPPLSEEEELELNTQRISSSQATQPLATPVVSVTTPSLPPQGLVYSAMPTAYNTDYSLTSADLSALQGFNSPGMLSLGQVSAWQQHHLGQAALSSLVAGGQLSQGSNLSINTNQNISIKSEPISPPRDRMTPSGFQQQQQQQQQQQPPPPPQPQPQPPQPQPRQEMGRSPVDSLSSSSSSYDGSDREDPRGDFHSPIVLGRPPNTEDRESPSVKRMRMDAWVT

The variants in the test derive from B1. To be noted: with sumo2_human SUMO2, P61956.
sumo2_human SUMO2, P61956, sequence (P61956 whole entry): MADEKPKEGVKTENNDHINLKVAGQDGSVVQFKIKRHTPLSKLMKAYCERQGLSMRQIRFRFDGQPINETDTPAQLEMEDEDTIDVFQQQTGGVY
As to MGRKKIQITRIMDERNRQVTFTKRKFGLMKKAYELSVLCDCEIALIIFNSSNKLFQYASTDMDKVLLKYTEYNEPHESRTNSDIVEALNKKEHRGCDSPDPDTSYVLTPHTEEKYKKINEEFDNMMRNHKIAPGLPPQNFSMSVTVPVTSPNALSYTNPGSSLVSPSLAASSTLTDSSMLSPPQTTLHRNVSPGAPQRPPSTGNAGGMLSTTDLTVPNGAGSSPVGNGFVNSRASPNLIGATGANSLGKVMPTKSPPPPGGGNLGMNSRKPDLRVVIPPSSKGMMPPLSEEEELELNTQRISSSQATQPLATPVVSVTTPSLPPQGLVYSAMPTAYNTDYSLTSADLSALQGFNSPGMLSLGQVSAWQQHHLGQAALSSLVAGGQLSQGSNLSINTNQNISIRSEPISPPRDRMTPSGFQQQQQQQQQQQPPPPPQPQPQPPQPQPRQEMGRSPVDSLSSSSSSYDGSDREDPRGDFHSPIVLGRPPNTEDRESPSVKRMRMDAWVT [K403R], the “effect of a mutation on the interaction” value is recorded as “disrupting interaction”. On to MGRKKIQITRIMDERNRQVTFTKRKFGLMKKAYELSVLCDCEIALIIFNSSNKLFQYASTDMDKVLLKYTEYNEPHESRTNSDIVEALNKKEHRGCDSPDPDTSYVLTPHTEEKYKKINEEFDNMMRNHKIAPGLPPQNFSMSVTVPVTSPNALSYTNPGSSLVSPSLAASSTLTDSSMLSPPQTTLHRNVSPGAPQRPPSTGNAGGMLSTTDLTVPNGAGSSPVGNGFVNSRASPNLIGATGANSLGKVMPTKSPPPPGGGNLGMNSRKPDLRVVIPPSSKGMMPPLSEEEELELNTQRISSSQATQPLATPVVSVTTPSLPPQGLVYSAMPTAYNTDYSLTSADLSALQGFNSPGMLSLGQVSAWQQHHLGQAALSSLVAGGQLSQGSNLSINTNQNISIKSEPIAPPRDRMTPSGFQQQQQQQQQQQPPPPPQPQPQPPQPQPRQEMGRSPVDSLSSSSSSYDGSDREDPRGDFHSPIVLGRPPNTEDRESPSVKRMRMDAWVT [S408A], for which the “effect of a mutation on the interaction” value is “disrupting interaction”.

(Values after IntAct's records for PubMed 19684601.)
